{"source": "patent US20100210517A1", "note": "Positions of bridges follow the written chain, without caps; N, C: chain ends. No end group written: not given here.", "data": [{"biological_target": "recombinant human LRP1 ligand binding cluster II (amino acids 786-1165, C-terminal Fc) (human)", "sequence (Q07954 786-1165)": "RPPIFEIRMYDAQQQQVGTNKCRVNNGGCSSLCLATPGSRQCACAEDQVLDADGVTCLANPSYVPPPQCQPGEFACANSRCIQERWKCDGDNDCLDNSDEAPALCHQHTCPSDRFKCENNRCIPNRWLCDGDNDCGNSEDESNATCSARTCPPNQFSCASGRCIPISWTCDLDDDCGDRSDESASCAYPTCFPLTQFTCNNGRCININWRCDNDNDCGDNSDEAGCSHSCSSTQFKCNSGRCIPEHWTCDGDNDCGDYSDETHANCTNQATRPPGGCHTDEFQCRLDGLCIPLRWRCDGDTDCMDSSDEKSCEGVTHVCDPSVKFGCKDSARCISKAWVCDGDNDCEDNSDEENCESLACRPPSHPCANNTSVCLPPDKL", "experiment": "solid-phase binding assay, receptor coated on plate", "units": {"Kd": "nM"}, "values": [{"binder": "mRAP-8c (disulfide 1-67 (inferred)) peptide: CGKHFEAKIEKHNHYQKQLEIAHEKLRHAESVGDGERVSRSREKHALLEGRTKELGYTVKKHLQDGC", "Kd": "4 to 6"}, {"binder": "Heptide (disulfide 1-67 (inferred)) peptide: CGKHFEAKIEKHNHYQKQLEIAHEKLRHAESVGDAERVSRSREKHALLEGRTKELGYTVKKHLQDACG", "Kd": 3.5}, {"binder": "mRAP-14c (disulfide 1-60) peptide: CEAKIEKHNHYQKQLEIAHEKLRHAESVGDGERVSRSREKHALLEGRTKELGYTVKKHGC", "Kd": 21}]}]}
